For assay [1], the target named is T1, HLA-A*02:01_… (HLA-PEPTIDE target G8), recombinant soluble complex (human, UniProt P04439 25-297 at identity 0.94); P61769 21-119, enzymatically biotinylated (BirA) for screening and functional assays).
T1 construct: Also crystallised with Fab G8-P1C11
Description: scFv PPE ELISA. Background: An ELISA detects its analyte on a solid surface through an enzyme-linked reagent.

The target of assay [2] is HLA-A*01:01_… (HLA-PEPTIDE target G10), recombinant soluble complex (human, UniProt P04439-2 25-297; P61769 21-119, enzymatically biotinylated (BirA) for screening and functional assays). Put plainly: scFv PPE ELISA.

Changes are numbered by the printed parent chain.

B1: scFv R3G8-P5G08 (scFv, V domains shown)
VH: QVQLVQSGAEVKKPGASVKVSCKASGYTFTSNYMHWVRQAPGQGLEWMGWMNPNSGNTGYAQKFQGRVTMTRDTSTSTVYMELSSLRSEDTAVYYCARGLYGDYFLYYGMDVWGQGTTVTVSS
VL: not shown
For B1, the “fold binding to target pHLA over minipool of negative control pHLAs” value (“fold binding to target pHLA” for short) in assay [1] was not below 3 fold.

B2: scFv G8-P2B05 (scFv, V domains shown)
VH: EVQLLESGGGLVQPGGSLRLSCAASGFDFSIYSMNWVRQAPGKGLEWVSAISGSGGSTYYADSVKGRFTISRDNSKNTLYLQMNSLRAEDTAVYYCASNGNYYGSGSYYNYWGQGTLVTVSS
VL: DIQMTQSPSSLSASVGDRVTITCRASQSISRWLAWYQQKPGKAPKLLIYAASSLQSGVPSRFSGSGSGTDFTLTISSLQPEDFATYYCQQYSTYPITIGQGTKVEIK
On to B2, for which, in assay [1], the “fold binding to target pHLA” value was not below 3 fold.

B3: scFv R3G10-P1B07 (scFv, V domains shown)
VH: QVQLVQSGAEVKKPGASVKVSCKASGYTFTSYYMHWVRQAPGQGLEWMGIIHPGGGTTSYAQKFQGRVTMTRDTSTSTVYMELSSLRSEDTAVYYCARDKVYGDGFDPWGQGTLVTVSS
VL: B2 VL with Y49F, A50D, S53R, Y91A, S92E, T93A, Y94F, I96Y, I98F
Take B3: the “fold binding to target pHLA” value in assay [2] was not below 3 fold.

B4: scFv G8-P1A03 (scFv, V domains shown)
VH: QVQLVQSGAEVKKPGASVKVSCKASGGTFSRSAITWVRQAPGQGLEWMGWINPNSGATNYAQKFQGRVTMTRDTSTSTVYMELSSLRSEDTAVYYCARDDYGDYVAYFQHWGQGTLVTVSS
VL: DIQMTQSPSSLSASVGDRVTITCRASQSITSYLNWYQQKPGKAPKLLIYDASNLETGVPSRFSGSGSGTDFTLTISSLQPEDFATYYCQQNYNSVTFGQGTKLEIK
As to B4, the “fold binding to target pHLA” value in assay [1] is not below 3 fold.

B5: scFv G8-P1A04 (scFv, V domains shown)
VH: QVQLVQSGAEVKKPGASVKVSCKASGYPFIGQYLHWVRQAPGQGLEWMGIINPSGDSATYAQKFQGRVTMTRDTSTSTVYMELSSLRSEDTAVYYCARDLSYYYGMDVWGQGTTVTVSS
VL: DIQMTQSPSSLSASVGDRVTITCWASQGISSYLAWYQQKPGKAPKLLIYAASSLQSGVPSRFSGSGSGTDFTLTISSLQPEDFATYYCQQSYNTPWTFGPGTKVDIK
B5: the “fold binding to target pHLA” value in assay [1] is not below 3 fold.

B6: scFv R3G8-P4F05 (scFv, V domains shown)
VH: B1 VH with T30S, S31N, N32M, M34L, M51I, S55T, N57D, G59N, K63T, T118K
VL: B5 VL with W24R, S31N, S53T, N93S, W96L, P100G, D105E
With B6, the “fold binding to target pHLA” value in assay [1] was not below 3 fold.

B7: scFv G8-P1B03 (scFv, V domains shown)
VH: EVQLLESGGGLVQPGGSLRLSCAASGFTFSDYYMSWVRQAPGKGLEWVSGINWNGGSTGYADSVKGRFTISRDNSKNTLYLQMNSLRAEDTAVYYCARVEQGYDIYYYYYMDVWGKGTTVTVSS
VL: B5 VL with W24R, G28S, A34N, A50K, Q55E, N93S, T94A, W96Y
B7: in assay [1], the “fold binding to target pHLA” value was not below 3 fold.

B8: scFv G8-P2E06 (scFv, V domains shown)
VH: QVQLVQSGAEVKKPGASVKVSCKASGYTLTTYYMHWVRQAPGQGLEWMGWINPNSGGTNYAQKFQGRVTMTRDTSTSTVYMELSSLRSEDTAVYYCARAVYYDFWSGPFDYWGQGTLVTVSS
VL: B2 VL with S28G, R31N, W32S, Y91A, S92N, T93S, Y94F, I96W, I98F, V104L
As to B8, the “fold binding to target pHLA” value in assay [1] is not below 3 fold.

B9: scFv G8-P1C11 (scFv, V domains shown)
VH: QVQLVQSGAEVKKPGASVKVSCKASGGTLSSYPINWVRQAPGQGLEWMGWISTYSGHADYAQKLQGRVTMTRDTSTSTVYMELSSLRSEDTAVYYCARSYDYGDYLNFDYWGQGTLVTVSS
VL: B5 VL with W24Q, G28D, S31N, A34N, N93S, T94I, W96P, P100G
Consider B9, for which the “fold binding to target pHLA” value in assay [1] is not below 3 fold.

B10: scFv R3G8-P2C10 (scFv, V domains shown)
VH: QVQLVQSGAEVKKPGASVKVSCKASGYTFTSYYMHWVRQAPGQGLEWMGWINPYSGGTNYAQKFQGRVTMTRDTSTSTVYMELSSLRSEDTAVYYCAKGGIYYGSGSYPSWGQGTLVTVSS
VL: B2 VL with S28D, I29V, R31T, Y91S, S92H, T93S, Y94T, I96Q, I98F
For B10, the “fold binding to target pHLA” value in assay [1] is not below 3 fold.

B11: scFv R3G8-P5C03 (scFv, V domains shown)
VH: QVQLVQSGAEVKKPGASVKVSCKASGYTFTSYYMHWVRQAPGQGLEWMGWMNPNSGNTGYAQKFQGRVTMTRDTSTSTVYMELSSLRSEDTAVYYCARGLLGFGEFLTYGMDVWGQGTLVTVSS
VL: B5 VL with W24R, S31N, Y32W, S53T, S91T, N93S, P100Q, V104L, D105E
With B11, the “fold binding to target pHLA” value in assay [1] was not below 3 fold.

B12: scFv G8-P1D02 (scFv, V domains shown)
VH: EVQLLESGGGLVQPGGSLRLSCAASGFTFSSYWMSWVRQAPGKGLEWVSSISGRGDNTYYADSVKGRFTISRDNSKNTLYLQMNSLRAEDTAVYYCARASGSGYYYYYGMDVWGQGTTVTVSS
VL: B5 VL with W24Q, G28D, S31N, A34N, N93S, T94A, W96Y, P100G, D105E
On to B12, for which the “fold binding to target pHLA” value in assay [1] is not below 3 fold.

B13: scFv R3G10-P1H01 (scFv, V domains shown)
VH: QVQLVQSGAEVKKPGASVKVSCKASGYTFTGYYMHWVRQAPGQGLEWMGMIGPSDGSTSYAQKFQGRVTMTRDTSTSTVYMELSSLRSEDTAVYYCARGVGNLDYWGQGTLVTVSS
VL: B2 VL with R31N, W32Y, A34N, Q89H, Y91T, S92Y, T93S, Y94T, I96L, I98F
As to B13, in assay [2], the “fold binding to target pHLA” value was not below 3 fold.

B14: scFv R3G10-P1A07 (scFv, V domains shown)
VH: EVQLLESGGGLVKPGGSLRLSCAASGFTFSSYWMSWVRQAPGKGLEWVSGISARSGRTYYADSVKGRFTISRDDSKNTLYLQMNSLKTEDTAVYYCARDQDTIFGVVITWFDPWGQGTLVTVSS
VL: B2 VL with S28G, R31N, W32Y, S56G, S92F, Y94T, I96Y, I98F, V104L
Consider B14, for which, in assay [2], the “fold binding to target pHLA” value is not below 3 fold.

B15: scFv G8-P2C11 (scFv, V domains shown)
VH: QVQLVQSGAEVKKPGASVKVSCKASGYTFTSYAMNWVRQAPGQGLEWMGWINPNSGGTNYAQKFQGRVTMTRDTSTSTVYMELSSLRSEDTAVYYCARDPFWSGHYYYYGMDVWGQGTTVTVSS
VL: not shown
With B15, the “fold binding to target pHLA” value in assay [1] is not below 3 fold.

B16: scFv R3G10-P1E12 (scFv, V domains shown)
VH: B13 VH with T28I, G99E, V100D, G101D, N102S, L103M, Y105V, Q108K, L111T
VL: not shown
Turning to B16, in assay [2], the “fold binding to target pHLA” value is not below 3 fold.

B17: scFv R3G10-P4E12 (scFv, V domains shown)
VH: B13 VH with K63R, G99E, V100E, G101D, N102G, L103M, Y105V, L111T
VL: B2 VL with S28G, R31T, W32Y, A50D, S92Y, T93S, I96W, I98F, K103R, V104L
With B17, the “fold binding to target pHLA” value in assay [2] is not below 3 fold.

B18: scFv R3G8-P5F02 (scFv, V domains shown)
VH: QVQLVQSGAEVKKPGASVKVSCKASGYTFTGYYIHWVRQAPGQGLEWMGVINPSGGSTTYAQKLQGRVTMTRDTSTSTVYMELSSLRSEDTAVYYCARDRDSSWTYYYYGMDVWGQGTTVTVSS
VL: EIVMTQSPATLSVSPGERATLSCRASQSVGNSLAWYQQKPGQAPRLLIYGASTRATGIPARFSGSGSGTEFTLTISSLQSEDFAVYYCQQYGSSPYTFGQGTKVEIK
For the molecule B18, the “fold binding to target pHLA” value in assay [1] is not below 3 fold.

B19: scFv G8-P1A06 (scFv, V domains shown)
VH: QVQLVQSGAEVKKPGASVKVSCKASGYTFTNYYMHWVRQAPGQGLEWMGWMNPIGGGTGYAQKFQGRVTMTRDTSTSTVYMELSSLRSEDTAVYYCARVYDFWSVLSGFDIWGQGTLVTVSS
VL: DIQMTQSPSSLSASVGDRVTITCRASQAISNSLAWYQQKPGKAPKLLIYAASTLQSGVPSRFSGSGSGTDFTLTISSLQPEDFATYYCGQSYSTPPTFGQGTKLEIK
On to B19, for which, in assay [1], the “fold binding to target pHLA” value is not below 3 fold.

B20: scFv R3G10-P1F06 (scFv, V domains shown)
VH: B13 VH with T30I, G99D, V100S, G101S, N102G, Y105P
VL: B19 VL with A28S, S32Y, A34N, A50K, T53S, Q55E, G89Q, S93I, T94I, P96Y
For the molecule B20, the “fold binding to target pHLA” value in assay [2] was not below 3 fold.

B21: scFv R3G8-P2E04 (scFv, V domains shown)
VH: QVQLVQSGAEVKKPGSSVKVSCKASGGTFSSYGVSWVRQAPGQGLEWMGWISPYSGNTDYAQKFQGRVTITADESTSTAYMELSSLRSEDTAVYYCARGLYYMDVWGKGTTVTVSS
VL: B19 VL with A28S, N31S, S32W, A50D, T53N, Q55E, S56T, G89Q, P96L, Q100G
As for B21, the “fold binding to target pHLA” value in assay [1] is not below 3 fold.

B22: scFv G8-P1H08 (scFv, V domains shown)
VH: QVQLVQSGAEVKKPGASVKVSCKASGYTFGNYFMHWVRQAPGQGLEWMGMVNPSGGSETFAQKFQGRVTMTRDTSTSTVYMELSSLRSEDTAVYYCAASTWIQPFDYWGQGTLVTVSS
VL: DIQMTQSPSSLSASVGDRVTITCRASQGINSYLAWYQQKPGKAPKLLIYDASNLETGVPSRFSGSGSGTDFTLTISSLQPEDFATYYCQQHNSYPPTFGQGTKLEIK
In the case of B22, the “fold binding to target pHLA” value in assay [1] was not below 3 fold.

B23: scFv G8-P1C01 (scFv, V domains shown)
VH: QVQLVQSGAEVKKPGASVKVSCKASGGTFSSHAISWVRQAPGQGLEWMGVIIPSGGTSYTQKFQGRVTMTRDTSTSTVYMELSSLRSEDTAVYYCARGDYYDSSGYYFPVYFDYWGQGTLVTVSS
VL: B22 VL with G28N, N30Y, S31T, A34N, H91A, S93G, Y94F, P96L, Q100G, L104V
With B23, the “fold binding to target pHLA” value in assay [1] is not below 3 fold.
